Assay results: the supplement of paper PMC10567573

B1: C8orf76 (parent)
chain: YCAKLCEPQWFYEETESSDDVEVL

Variants of: B1
Experiment: protein stability index of a GFP-peptide fusion (GPS, HEK-293T) (PSI 1-6); higher = more stable
Conditions: c terminus: a fixed tail appended
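Note: lentivirally expressed fusions sorted by FACS into six bins by GFP to DsRed ratio, PSI derived from sequencing read proportions per bin multiplied by bin number.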

Protein stability index of substitutions, site by site:
D19: N 2.26 | R 2 | P 1.57 | L 1.76 | V 2.07 | F 2.1 | E 2.35 | T 2.19 | I 1.76 | S 2.08 | Y 1.76 | W 1.41 | G 2.09 | M 1.58
L5: D 3.42 | K 2.05 | Y 3.33 | V 2.4 | H 2.72 | I 1.98 | E 2.94 | G 2.99 | A 2.62 | Q 2.63 | R 2.44 | C 3.03 | M 2.97
E16: M 2.31 | W 1.65 | G 1.87 | H 3.15 | N 1.89 | P 1.65 | F 2.19 | Q 1.54 | Y 2.59 | C 1.58 | D 2.41 | A 2.25 | L 3.46 | K 2.28 | I 2.14
P8: G 2.56 | K 1.62 | Y 1.76 | H 2.12 | V 2.19 | L 1.67 | F 1.94 | M 2.32 | D 3.18 | R 1.86 | E 3.1 | C 1.73 | A 2.09
S18: M 2.34 | I 1.88 | G 2.39 | N 2.33 | V 2.1 | H 2.06 | T 2.11 | D 2.6 | F 1.49 | R 2
E13: V 1.57 | T 2.1 | Y 1.55 | M 2.13 | D 2.04 | Q 1.65 | G 1.26 | I 2.1 | N 1.6 | W 1.8 | S 2.51 | R 1.64
S17: F 1.87 | P 2.34 | D 3.15 | V 2.25 | A 2.38 | W 2.74 | R 2.25 | Q 2.35 | K 2 | C 1.68 | M 2.14 | G 3.01
D20: I 1.74 | T 2.18 | W 1.79 | A 2.27 | N 2.05 | Q 1.86 | C 2.49 | F 2.04 | R 1.5 | S 2.29 | G 1.37 | L 1.67 | V 1.86 | H 1.91 | E 1.92
C2: Q 2.51 | M 3.62 | T 3.22 | V 2.1 | R 4.17 | D 4.96 | F 2.59 | L 2.94 | Y 2.87 | S 3.63 | K 4.17 | N 2.91 | I 2.65 | A 1.94 | H 1.68
C6: H 2.32 | R 2.21 | V 3.3 | W 1.77 | K 2.93 | D 2.93 | S 2.18 | Y 2.29 | N 2.36 | Q 3.02 | P 2.86 | L 2.96 | G 1.52 | A 2.95 | E 3.63
E22: R 2.14 | N 2.14 | P 2.33 | D 1.98 | Y 1.63 | W 2.28 | C 2.06 | I 2.03 | K 2.21 | V 1.36 | H 2.06 | M 1.49 | A 2.2 | F 1.6 | G 2.31 | L 1.38
Y12: N 2.62 | F 2.43 | I 1.97 | R 2.76 | D 3.63 | P 3.15 | H 2.44 | G 2.62 | W 1.8 | M 1.97 | S 2.52 | K 2.39 | C 1.98
K4: P 2.43 | R 2.54 | S 2.01 | C 2.96 | I 2.29 | V 3.05 | F 2.56 | N 4.3 | T 2.94 | D 3.69 | H 2.84 | G 1.98 | E 4.61 | L 2.71
V23: D 2.41 | W 1.98 | C 2.47 | L 2.05 | G 2.39 | N 3.18 | I 2.08 | E 2.33 | F 2.45 | Q 2.8 | K 1.96 | M 2.48 | A 2.68 | H 2.62
Q9: K 2.09 | N 2.17 | C 1.93 | E 3.13 | R 1.41 | G 2.15 | M 1.88 | I 2.22 | H 2.13 | P 2.03 | A 2.46 | L 2.14 | S 2.4
W10: D 4.5 | C 3.87 | L 3.04 | A 4.04 | K 4.15 | G 4.02 | H 3.52 | E 3.98 | I 3.45 | V 3.35 | M 3.51 | Q 4.45 | N 4.07 | P 3.92 | Y 2.71 | S 4.48
V21: L 2.07 | A 2.3 | H 2.27 | N 2.35 | W 2.04 | I 2.39 | E 2.43 | F 2.12 | S 2.46 | R 2.27 | Y 2.48 | G 2.56 | T 3.28 | K 2.99
Y1: W 3.66 | F 1.91 | H 4.36 | C 4.28 | M 4.26 | T 5.11 | A 4.42 | E 4.99 | I 3.45 | R 4.92 | Q 4.45 | P 4.76
T15: F 2.02 | M 1.91 | C 2.16 | N 2.08 | D 2.9 | Y 1.96 | H 2.12 | P 2.84 | Q 2.43 | A 2.63 | L 1.75 | R 2.9 | I 1.91 | V 2.17
E7: N 2.67 | T 2.5 | D 3.69 | H 2.57 | W 1.63 | L 2.83 | P 2.46 | M 2.49 | I 2.32 | V 2.3 | C 2.69 | Q 3.27 | Y 2.2 | F 2.33 | S 2.82 | A 2.27 | G 2.43
E14: K 1.39 | C 1.8 | S 2.15 | G 2.11 | H 2.1 | W 1.46 | P 1.84 | Q 1.72 | D 2.36 | Y 2.04 | A 2.14 | I 1.23 | L 2.29 | R 1.8 | M 2.78 | T 2.17
L24: M 2.65 | C 2.9 | D 2.56 | H 2.15 | T 2.11 | G 2.54 | P 2.69 | K 3 | N 2.36 | A 2.45 | E 2.62 | Q 1.86 | S 2.66 | I 2.73 | W 1.85 | R 2.78
F11: L 3.56 | I 2.75 | G 3.43 | V 3.38 | C 3.41 | Y 1.88 | N 3.48 | H 2.71 | D 4.38 | E 4.83 | W 2.63 | T 3.48
A3: M 3.1 | F 2.3 | D 3.48 | I 2.51 | V 3.04 | S 2.78 | N 2.74 | P 1.71 | Q 2.28 | Y 2.83 | E 4.06 | L 2.78 | W 1.95
